Some targets named below: Human CD16b (human) (UniProt O75015); Human CD64 (human) (UniProt P12314); Human CD32b (human) (UniProt P31994); Human CD16a (human) (UniProt P08637); Human CD32a (human) (UniProt P12318).
What all share (experiment): SPR; set-up for the IgG1 comparator not stated

Chain of Human CD64 (human) (P12314 16-288 limits assumed): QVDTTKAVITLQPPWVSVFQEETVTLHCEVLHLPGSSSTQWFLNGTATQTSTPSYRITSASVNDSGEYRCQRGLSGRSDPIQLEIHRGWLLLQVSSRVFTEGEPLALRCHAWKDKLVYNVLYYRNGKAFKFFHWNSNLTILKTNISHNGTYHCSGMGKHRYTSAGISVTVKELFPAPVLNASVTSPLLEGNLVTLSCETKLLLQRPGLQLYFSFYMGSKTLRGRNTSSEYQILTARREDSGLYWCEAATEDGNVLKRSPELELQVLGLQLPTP
Chain of Human CD16b (human) (O75015 17-200 limits assumed): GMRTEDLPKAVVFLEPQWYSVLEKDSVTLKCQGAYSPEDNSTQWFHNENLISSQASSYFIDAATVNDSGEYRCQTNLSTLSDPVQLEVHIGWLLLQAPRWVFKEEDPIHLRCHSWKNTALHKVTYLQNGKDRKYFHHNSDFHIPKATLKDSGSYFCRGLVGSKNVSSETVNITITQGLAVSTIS
Chain of Human CD32b (human) (P31994 46-217 limits assumed): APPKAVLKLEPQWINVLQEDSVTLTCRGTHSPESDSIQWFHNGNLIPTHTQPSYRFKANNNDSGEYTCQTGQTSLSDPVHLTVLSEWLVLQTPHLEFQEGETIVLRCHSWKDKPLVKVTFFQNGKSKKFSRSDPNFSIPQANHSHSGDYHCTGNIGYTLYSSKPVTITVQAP
Chain of Human CD32a (human) (P12318 36-218 limits assumed): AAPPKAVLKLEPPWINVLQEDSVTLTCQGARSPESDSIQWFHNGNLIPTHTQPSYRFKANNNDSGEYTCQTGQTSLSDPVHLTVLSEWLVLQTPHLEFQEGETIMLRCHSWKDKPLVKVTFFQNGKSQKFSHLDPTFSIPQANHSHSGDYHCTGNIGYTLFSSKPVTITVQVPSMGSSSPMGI
Chain of Human CD16a (human) (P08637 17-208 limits assumed): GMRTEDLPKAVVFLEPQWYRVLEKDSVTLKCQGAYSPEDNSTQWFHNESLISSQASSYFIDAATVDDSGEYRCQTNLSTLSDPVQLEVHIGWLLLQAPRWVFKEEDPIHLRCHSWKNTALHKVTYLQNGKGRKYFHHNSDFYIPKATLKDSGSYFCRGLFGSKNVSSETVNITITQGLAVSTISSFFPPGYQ

By Kd is commonly meant the free concentration of one partner at which half of the binding sites on the other are occupied at equilibrium, for simple one-to-one binding. A lower Kd goes with tighter binding. With Full length human IgG1 antibody, the Kd with Human CD16b (human) is 2410 nM; in the assay with Human CD64 (human), 0.24 nM; in the assay with Human CD32b (human), 1180 nM; in the assay with Human CD16a (human), 630 nM; in the assay with Human CD32a (human), 379 nM.

The values above are taken from patent publication US20160369002A1.
